According to FireProtDB (doi:10.1021/bi0357412):

B1: Phosphocarrier protein HPr, P08877 (parent)
chain: MAQKTFKVTADSGIHARPATVLVQTASKYDADVNLEYNGKTVNLKSIMGVMSLGIAKGAEITISASGADENDALNALEETMKSEGLGE

Variants of: B1
Conditions: Bacillus subtilis (strain 168); pH 7; 25 °C; GdnHCl; CD; Potassium phosphate 10 mM; reversible: yes; structure 1SPH; whole UniProt chain shown

Variant	ddG of mutation (higher = less stable)	denaturant m value	denaturant midpoint (higher = more stable)	unfolding free energy
MAQKTFKVTADSGIHARPATVLVQTASKYDADVNLEYNGKTVNLKSIMEVMSLGIAKGAEITISASGAAENDALNALEETMKSEGLGE [D69A G49E]	-0.6 kcal/mol	2.4 kcal/mol/M	1.8 M	4.3 kcal/mol

Same assay, conditions: Bacillus subtilis (strain 168); pH 7; 25 °C; Thermal; CD; Sodium phosphate 50 mM; reversible: yes; structure 1SPH; whole UniProt chain shown

Variant	ddG of mutation (higher = less stable)	unfolding free energy
MAQKTFKVTADSGIHARPATVLVQTASKYDADVNLEYNGKTVNLKSIMEVMSLGIAKGAEITISASGAAENDALNALEETMKSEGLGE [D69A G49E]	0.7 kcal/mol	4.4 kcal/mol

Same assay, conditions: Bacillus subtilis (strain 168); pH 7; 25 °C; Urea; CD; Sodium phosphate 50 mM; reversible: yes; structure 1SPH; whole UniProt chain shown

Variant	ddG of mutation (higher = less stable)	denaturant m value	denaturant midpoint (higher = more stable)	unfolding free energy
MAQKTFKVTADSGIHARPATVLVQTASKYDADVNLEYNGKTVNLKSIMEVMSLGIAKGAEITISASGAAENDALNALEETMKSEGLGE [D69A G49E]	0.7 kcal/mol	1.1 kcal/mol/M	3.9 M	4.2 kcal/mol

Same assay, conditions: Bacillus subtilis (strain 168); pH 7; Thermal; DSC; Potassium phosphate 10 mM; reversible: yes; structure 1SPH; whole UniProt chain shown

Variant	Tm	change of melting temperature, mutant - wild type (higher = more stable)	unfolding enthalpy (calorimetric)
MAQKTFKVTADSGIHARPATVLVQTASKYDADVNLEYNGKTVNLKSIMEVMSLGIAKGAEITISASGAAENDALNALEETMKSEGLGE [D69A G49E]	70 °C	-4.9 °C	71.5 kcal/mol
